Source: patent US20100048677A1 (NEW YORK BLOOD CENTER, published 2010)

B1: DNAJC10 (DNAJ (HSP40) HOMOLOG, SUBFAMILY C, MEMBER 10) (other)
chain: DQDFYSLLGVSKTASSREIRQAFKKLALKLHPDKNPNNPNAHGDFLKINRAYEVLKDEDLRKKYDKYGEKGLEDNQGGQYESWNYYRYDFGIYDDDPEIITLERREFDAAVNSGELWFVNFYSPGCSHCHDLAPTWRDFAKEVDGLLRIGAVNCGDDRMLCRMKGVNSYPSLFIFRSGMAPVKYHGDRSKESLVSFAMQHVRSTVTELWTGNFVNSIQTAFAAGIGWLITFCSKGGDCLTSQTRLRLSGMLDGLVNVGWMDCATQDNLCKSLDITTSTTAYFPPGATLNNKEKNSILFLNSLDAKEIYLEVIHNLPDFELLSANTLEDRLAHHRWLLFFHFGKNENSNDPELKKLKTLLKNDHIQVGRFDCSSAPDICSNLYVFQPSLAVFKGQGTKEYEIHHGKKILYDILAFAKESVNSHVTTLGPQNFPANDKEPWLVDFFAPWCPPCRALLPELRRASNLLYGQLKFGTLDCTVHEGLCNMYNIQAYPTTVVFNQSNIHEYEGHHSAEQILEFIEDLMNPSVVSLTPTTFNELVTQRKHNEVWMVDFYSPWCHPCQVLMPEWKRMARTLTGLINVGSIDCQQYHSFCAQENVQRYPEIRFFPPKSNKAYHYHSYNGWNRDAYSLRIWGLGFLPQVSTDLTPQTFSEKVLQGKNHWVIDFYAPWCGPCQNFAPEFELLARMIKGKVKAGKVDCQAYAQTCQKAGIRAYPTVKFYFYERAKRNFQEEQINTRDAKAIAALISEKLETLRNQGKRNKDEL
notes: Endogenous protein in lysates of human UCB-derived megakaryocytes or HEK293 cells

These molecules were tested against αIIb (INTEGRIN, ALPHA 2B; PLATELET GLYCOPROTEIN IIB OF IIB/IIIA COMPLEX, ANTIGEN CD41) (human) (UniProt P08514) (assay: αIIb complexes captured, mass spectrometry; No. Expts 1).

Q: With “GLUCO… AER61 (from UniProt Q5NDL2 18-527)” as the molecule, how does the #Peptides read?
A: The #Peptides was 3 peptides.

Q: With “PROTEIN KINASE, AMP-…, BETA 1 NON-… SUBUNIT (from UniProt Q9Y478 2-270)” as the molecule, how does the #Peptides read?
A: Its #Peptides is 9 peptides.

Q: With “AMINOACYLASE 1-LIKE 2 (from UniProt Q8IYS1 1-436)” as the molecule, how does the #Peptides read?
A: Its #Peptides is 13 peptides.

Q: With “LUC7L2 (CGI-59 PROTEIN) (from UniProt Q9Y383 1-392)” as the molecule, how does the #Peptides read?
A: The #Peptides was 3 peptides.

Q: …-TRNA … 2 (from UniProt O95363 1-451) was tested. Which #Peptides did it give?
A: Its #Peptides is 13 peptides.

Q: With CYCLIN G1 (from UniProt P51959 1-295) as the molecule, how does the #Peptides read?
A: Its #Peptides is 2 peptides.

Q: For “MITOGEN-… PROTEIN KINASE KINASE KINASE 7 … PROTEIN 2 (from UniProt Q9NYJ8 1-693)”, which #Peptides is on record?
A: Its #Peptides is 2 peptides.

Q: Which #Peptides does the source give for “PRE-B-CELL COLONY … FACTOR 1 (from UniProt P43490 1-491)” here?
A: The #Peptides was 6 peptides.

Q: For “RB1-INDUCIBLE COILED-COIL 1 (from UniProt Q8TDY2 1-1594)”, which #Peptides is on record?
A: Its #Peptides is 6 peptides.

Each molecule was assayed against αIIb (INTEGRIN, ALPHA 2B; PLATELET GLYCOPROTEIN IIB OF IIB/IIIA COMPLEX, ANTIGEN CD41) (human) (UniProt P08514) (assay: αIIb complexes captured, mass spectrometry; No. Expts 4).

Q: “ASPARTYL-TRNA … (from UniProt P14868 1-501)” was tested. Which #Peptides did it give?
A: Its #Peptides is 65 peptides.

These molecules were tested against αIIb (INTEGRIN, ALPHA 2B; PLATELET GLYCOPROTEIN IIB OF IIB/IIIA COMPLEX, ANTIGEN CD41) (human) (UniProt P08514) (assay: αIIb complexes captured, mass spectrometry; No. Expts 2).

Q: For “HEAT SHOCK 70 kDa PROTEIN 8 (from UniProt P11142 2-646)”, which #Peptides is on record?
A: The #Peptides was 11 peptides.

Q: Which #Peptides does the source give for “DYNAMIN BINDING PROTEIN (from UniProt Q6XZF7 1-1577)” here?
A: The #Peptides was 30 peptides.

Q: How did the #Peptides turn out when “DEAH (ASP-GLU-ALA-HIS) BOX PO… 15 (from UniProt O43143 1-795)” was run?
A: The #Peptides was 68 peptides.

Q: How did the #Peptides turn out when “TUBULIN, BETA (from UniProt P07437 1-444)” was run?
A: The #Peptides was 52 peptides.

Q: “CHAPERONIN CONTAINING TCP1, SUBUNIT 2 (BETA) (from UniProt P78371 2-535)” was tested. Which #Peptides did it give?
A: Its #Peptides is 20 peptides.

Q: Which #Peptides does the source give for “ALDEHYDE DEHYDROGENASE 18 FAMILY, MEMBER A1 (from UniProt P54886 1-795)” here?
A: The #Peptides was 16 peptides.

Q: How did the #Peptides turn out when “FILAMIN A, ALPHA (ACTIN BINDING PROTEIN 280) (from UniProt P21333 2-2647)” was run?
A: Its #Peptides is 14 peptides.

Q: How did the #Peptides turn out when “HETEROGENEOUS NUCLEAR RIBONUCLEOPROTEIN L (from UniProt P14866 1-589)” was run?
A: Its #Peptides is 26 peptides.

Q: How did the #Peptides turn out when “5′-NUCLEOTIDASE DOMAIN CONTAINING 2 (from UniProt Q9H857 1-520)” was run?
A: The #Peptides was 34 peptides.

The molecules below were run against αIIbβ3 (human) (UniProt P08514) (assay: antibody staining of UCB-derived megakaryocytes, before thrombin receptor-activating peptide).

Q: “PAC1, an activation-dependent, ligand-mimetic anti-αIIbβ3 monoclonal antibody” was tested. Which percentage of UCB cells recognized did it give?
A: The percentage of UCB cells recognized was 3%.

Each molecule was assayed against αIIb (INTEGRIN, ALPHA 2B; PLATELET GLYCOPROTEIN IIB OF IIB/IIIA COMPLEX, ANTIGEN CD41) (human) (UniProt P08514) (assay: αIIb complexes captured, mass spectrometry; No. Expts 3).

Q: “THIOREDOXIN DOMAIN CONTAINING 4 (ENDOPLASMIC RETICULUM) (from UniProt Q9BS26 30-406)” was tested. Which #Peptides did it give?
A: The #Peptides was 20 peptides.

Q: For KIAA1529 (from UniProt Q9P1Z9 1-1701), which #Peptides is on record?
A: The #Peptides was 62 peptides.

Q: With “GLUTAMATE DEHYDROGENASE 1 (from UniProt P00367 54-558)” as the molecule, how does the #Peptides read?
A: The #Peptides was 83 peptides.

Q: For “SHROOM3 F-ACTIN BINDING PROTEIN (from UniProt Q8TF72 1-1996)”, which #Peptides is on record?
A: Its #Peptides is 7 peptides.

Q: With “PLASMINOGEN (from UniProt P00747 20-810)” as the molecule, how does the #Peptides read?
A: Its #Peptides is 22 peptides.

Each molecule was assayed against αIIbβ3 (human) (UniProt P08514) (assay: antibody staining of UCB-derived megakaryocytes, after thrombin receptor-activating peptide).

Q: “PAC1, an activation-dependent, ligand-mimetic anti-αIIbβ3 monoclonal antibody” was tested. Which percentage of UCB cells recognized did it give?
A: The percentage of UCB cells recognized was 16%.

The molecules below were run against T1, mature αIIbβ3 complex (human, UniProt P08514 32-887; P08514 891-1039; P05106 27-788) (assay: co-immunoprecipitation with conformation-specific mAb M148, immunoblot for DNAJC10).
T1 construct: Endogenous, from megakaryocyte lysates

Q: Does B1 bind?
A: Result: no binding
